B1: STK38L (parent)
chain: NWKETLVFPPEVPISEKAKDLILR

Variants of: B1
Assay: protein stability index of a GFP-peptide fusion (GPS, HEK-293T) (PSI 1-6); higher = more stable
Settings: c terminus: a fixed tail appended
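Further: lentivirally expressed fusions sorted by FACS into six bins by GFP to DsRed ratio, PSI derived from sequencing read proportions per bin multiplied by bin number.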

For NWKETLVFPPEVPISTKAKDLILR [E16T], which protein stability index is on record?
Its protein stability index is 2.6.

With NWKETLVFPPEVPISVKAKDLILR [E16V] as the variant, how does the protein stability index read?
The protein stability index was 3.14.

With NWKETLVFPPEVPISYKAKDLILR [E16Y] as the variant, how does the protein stability index read?
Its protein stability index is 2.5.

With NWKETLVFPPEVPISEAAKDLILR [K17A] as the variant, how does the protein stability index read?
The protein stability index was 3.17.

For NWKETLVFPPEVPISECAKDLILR [K17C], which protein stability index is on record?
Its protein stability index is 2.81.

For NWKETLVFPPEVPISEDAKDLILR [K17D], which protein stability index is on record?
The protein stability index was 3.89.

Which protein stability index does the source give for NWKETLVFPPEVPISEEAKDLILR [K17E] here?
Its protein stability index is 3.32.

Which protein stability index does the source give for NWKETLVFPPEVPISEFAKDLILR [K17F] here?
The protein stability index was 2.93.

For NWKETLVFPPEVPISEGAKDLILR [K17G], which protein stability index is on record?
The protein stability index was 2.8.

With NWKETLVFPPEVPISEHAKDLILR [K17H] as the variant, how does the protein stability index read?
The protein stability index was 2.98.

Which protein stability index does the source give for NWKETLVFPPEVPISEIAKDLILR [K17I] here?
The protein stability index was 1.92.

For NWKETLVFPPEVPISELAKDLILR [K17L], which protein stability index is on record?
Its protein stability index is 2.15.

With NWKETLVFPPEVPISEMAKDLILR [K17M] as the variant, how does the protein stability index read?
The protein stability index was 2.85.

Which protein stability index does the source give for NWKETLVFPPEVPISENAKDLILR [K17N] here?
Its protein stability index is 3.37.

For NWKETLVFPPEVPISEPAKDLILR [K17P], which protein stability index is on record?
Its protein stability index is 3.41.

For NWKETLVFPPEVPISEQAKDLILR [K17Q], which protein stability index is on record?
Its protein stability index is 3.05.

Which protein stability index does the source give for NWKETLVFPPEVPISERAKDLILR [K17R] here?
Its protein stability index is 2.8.

Which protein stability index does the source give for NWKETLVFPPEVPISESAKDLILR [K17S] here?
Its protein stability index is 4.07.

With NWKETLVFPPEVPISETAKDLILR [K17T] as the variant, how does the protein stability index read?
The protein stability index was 3.7.

For NWKETLVFPPEVPISEVAKDLILR [K17V], which protein stability index is on record?
The protein stability index was 2.21.

With NWKETLVFPPEVPISEWAKDLILR [K17W] as the variant, how does the protein stability index read?
The protein stability index was 2.41.

With NWKETLVFPPEVPISEYAKDLILR [K17Y] as the variant, how does the protein stability index read?
The protein stability index was 3.14.

With NWKETLVFPPEVPISEKCKDLILR [A18C] as the variant, how does the protein stability index read?
The protein stability index was 2.72.

With NWKETLVFPPEVPISEKDKDLILR [A18D] as the variant, how does the protein stability index read?
The protein stability index was 3.76.

Which protein stability index does the source give for NWKETLVFPPEVPISEKEKDLILR [A18E] here?
Its protein stability index is 4.56.

Which protein stability index does the source give for NWKETLVFPPEVPISEKFKDLILR [A18F] here?
Its protein stability index is 3.06.

Which protein stability index does the source give for NWKETLVFPPEVPISEKGKDLILR [A18G] here?
Its protein stability index is 3.21.

With NWKETLVFPPEVPISEKHKDLILR [A18H] as the variant, how does the protein stability index read?
The protein stability index was 2.54.

For NWKETLVFPPEVPISEKIKDLILR [A18I], which protein stability index is on record?
The protein stability index was 1.89.

Which protein stability index does the source give for NWKETLVFPPEVPISEKKKDLILR [A18K] here?
The protein stability index was 3.4.

For NWKETLVFPPEVPISEKLKDLILR [A18L], which protein stability index is on record?
Its protein stability index is 1.8.

For NWKETLVFPPEVPISEKMKDLILR [A18M], which protein stability index is on record?
The protein stability index was 2.39.

With NWKETLVFPPEVPISEKNKDLILR [A18N] as the variant, how does the protein stability index read?
The protein stability index was 3.38.

With NWKETLVFPPEVPISEKPKDLILR [A18P] as the variant, how does the protein stability index read?
Its protein stability index is 3.1.

Which protein stability index does the source give for NWKETLVFPPEVPISEKQKDLILR [A18Q] here?
The protein stability index was 3.57.

With NWKETLVFPPEVPISEKRKDLILR [A18R] as the variant, how does the protein stability index read?
Its protein stability index is 3.69.

For NWKETLVFPPEVPISEKSKDLILR [A18S], which protein stability index is on record?
Its protein stability index is 3.32.

With NWKETLVFPPEVPISEKTKDLILR [A18T] as the variant, how does the protein stability index read?
The protein stability index was 3.41.

For NWKETLVFPPEVPISEKVKDLILR [A18V], which protein stability index is on record?
Its protein stability index is 2.72.

Which protein stability index does the source give for NWKETLVFPPEVPISEKWKDLILR [A18W] here?
Its protein stability index is 2.65.

Which protein stability index does the source give for NWKETLVFPPEVPISEKYKDLILR [A18Y] here?
Its protein stability index is 2.45.

With NWKETLVFPPEVPISEKAADLILR [K19A] as the variant, how does the protein stability index read?
The protein stability index was 2.69.

With NWKETLVFPPEVPISEKACDLILR [K19C] as the variant, how does the protein stability index read?
Its protein stability index is 2.87.

Which protein stability index does the source give for NWKETLVFPPEVPISEKADDLILR [K19D] here?
The protein stability index was 3.38.

For NWKETLVFPPEVPISEKAEDLILR [K19E], which protein stability index is on record?
Its protein stability index is 3.77.

For NWKETLVFPPEVPISEKAFDLILR [K19F], which protein stability index is on record?
Its protein stability index is 1.95.

For NWKETLVFPPEVPISEKAGDLILR [K19G], which protein stability index is on record?
Its protein stability index is 2.96.

For NWKETLVFPPEVPISEKAHDLILR [K19H], which protein stability index is on record?
Its protein stability index is 2.78.

For NWKETLVFPPEVPISEKAIDLILR [K19I], which protein stability index is on record?
The protein stability index was 2.01.

Which protein stability index does the source give for NWKETLVFPPEVPISEKALDLILR [K19L] here?
Its protein stability index is 1.49.

For NWKETLVFPPEVPISEKAMDLILR [K19M], which protein stability index is on record?
The protein stability index was 2.19.

For NWKETLVFPPEVPISEKANDLILR [K19N], which protein stability index is on record?
The protein stability index was 3.07.

With NWKETLVFPPEVPISEKAPDLILR [K19P] as the variant, how does the protein stability index read?
The protein stability index was 3.17.

For NWKETLVFPPEVPISEKAQDLILR [K19Q], which protein stability index is on record?
Its protein stability index is 2.86.

For NWKETLVFPPEVPISEKARDLILR [K19R], which protein stability index is on record?
The protein stability index was 2.96.

With NWKETLVFPPEVPISEKASDLILR [K19S] as the variant, how does the protein stability index read?
Its protein stability index is 3.53.

Which protein stability index does the source give for NWKETLVFPPEVPISEKATDLILR [K19T] here?
Its protein stability index is 3.41.

With NWKETLVFPPEVPISEKAWDLILR [K19W] as the variant, how does the protein stability index read?
Its protein stability index is 2.26.

With NWKETLVFPPEVPISEKAYDLILR [K19Y] as the variant, how does the protein stability index read?
Its protein stability index is 2.29.

For NWKETLVFPPEVPISEKAKALILR [D20A], which protein stability index is on record?
The protein stability index was 2.92.

With NWKETLVFPPEVPISEKAKCLILR [D20C] as the variant, how does the protein stability index read?
Its protein stability index is 2.06.

Which protein stability index does the source give for NWKETLVFPPEVPISEKAKFLILR [D20F] here?
Its protein stability index is 2.52.

Which protein stability index does the source give for NWKETLVFPPEVPISEKAKGLILR [D20G] here?
Its protein stability index is 2.31.

For NWKETLVFPPEVPISEKAKHLILR [D20H], which protein stability index is on record?
Its protein stability index is 1.9.

Which protein stability index does the source give for NWKETLVFPPEVPISEKAKILILR [D20I] here?
Its protein stability index is 1.52.

Which protein stability index does the source give for NWKETLVFPPEVPISEKAKKLILR [D20K] here?
Its protein stability index is 2.57.

Which protein stability index does the source give for NWKETLVFPPEVPISEKAKMLILR [D20M] here?
The protein stability index was 1.94.

With NWKETLVFPPEVPISEKAKNLILR [D20N] as the variant, how does the protein stability index read?
Its protein stability index is 2.63.

With NWKETLVFPPEVPISEKAKPLILR [D20P] as the variant, how does the protein stability index read?
The protein stability index was 2.65.

For NWKETLVFPPEVPISEKAKQLILR [D20Q], which protein stability index is on record?
Its protein stability index is 3.

With NWKETLVFPPEVPISEKAKRLILR [D20R] as the variant, how does the protein stability index read?
The protein stability index was 2.94.

Which protein stability index does the source give for NWKETLVFPPEVPISEKAKSLILR [D20S] here?
The protein stability index was 2.45.

With NWKETLVFPPEVPISEKAKTLILR [D20T] as the variant, how does the protein stability index read?
The protein stability index was 2.92.

For NWKETLVFPPEVPISEKAKVLILR [D20V], which protein stability index is on record?
The protein stability index was 2.23.

With NWKETLVFPPEVPISEKAKWLILR [D20W] as the variant, how does the protein stability index read?
The protein stability index was 1.92.

Which protein stability index does the source give for NWKETLVFPPEVPISEKAKYLILR [D20Y] here?
The protein stability index was 1.8.

For NWKETLVFPPEVPISEKAKDAILR [L21A], which protein stability index is on record?
Its protein stability index is 3.35.

With NWKETLVFPPEVPISEKAKDCILR [L21C] as the variant, how does the protein stability index read?
The protein stability index was 3.62.

With NWKETLVFPPEVPISEKAKDDILR [L21D] as the variant, how does the protein stability index read?
Its protein stability index is 3.72.

For NWKETLVFPPEVPISEKAKDEILR [L21E], which protein stability index is on record?
The protein stability index was 4.66.

With NWKETLVFPPEVPISEKAKDFILR [L21F] as the variant, how does the protein stability index read?
Its protein stability index is 2.63.

With NWKETLVFPPEVPISEKAKDGILR [L21G] as the variant, how does the protein stability index read?
The protein stability index was 3.81.

With NWKETLVFPPEVPISEKAKDHILR [L21H] as the variant, how does the protein stability index read?
Its protein stability index is 3.48.

Which protein stability index does the source give for NWKETLVFPPEVPISEKAKDIILR [L21I] here?
Its protein stability index is 3.27.

Which protein stability index does the source give for NWKETLVFPPEVPISEKAKDMILR [L21M] here?
Its protein stability index is 3.42.

Which protein stability index does the source give for NWKETLVFPPEVPISEKAKDNILR [L21N] here?
Its protein stability index is 3.56.

Which protein stability index does the source give for NWKETLVFPPEVPISEKAKDPILR [L21P] here?
Its protein stability index is 3.69.

With NWKETLVFPPEVPISEKAKDQILR [L21Q] as the variant, how does the protein stability index read?
The protein stability index was 3.41.

Which protein stability index does the source give for NWKETLVFPPEVPISEKAKDRILR [L21R] here?
Its protein stability index is 3.62.

For NWKETLVFPPEVPISEKAKDSILR [L21S], which protein stability index is on record?
Its protein stability index is 3.72.

For NWKETLVFPPEVPISEKAKDTILR [L21T], which protein stability index is on record?
Its protein stability index is 4.44.

Which protein stability index does the source give for NWKETLVFPPEVPISEKAKDVILR [L21V] here?
Its protein stability index is 3.53.

For NWKETLVFPPEVPISEKAKDWILR [L21W], which protein stability index is on record?
The protein stability index was 2.58.

With NWKETLVFPPEVPISEKAKDYILR [L21Y] as the variant, how does the protein stability index read?
The protein stability index was 2.71.
